Laboratory results as given in article PMC4895914 (2014).
Square brackets hold non-standard residues; d marks the D form. Ends that are not written are not given here. * marks the point of attachment. His(π-(CH2)8Ph,τ-CH2CH2CH(OH)CH2OH) = His N(pi)-(CH2)8Ph and N(tau)-CH2CH2CH(OH)CH2OH; FITC = O=C1OC2(c3ccc(O)cc3Oc3cc(O)ccc32)c2ccc(NC(=S)*)cc21; His(π-(CH2)8Ph) = N[C@@H](Cc1cncn1CCCCCCCCc1ccccc1)C(=O)O; pT = C[C@@H](OP(=O)(O)O)[C@H](N)C(=O)O; PEG = not defined here

T1: 2a* (not fully specified; reading uncertain)
T1 chain: {FITC-PEG}-PL[His(π-(CH2)8Ph)]S[pT]

T2: 3c* (not fully specified (residue 3); reading uncertain; also: His N(tau)-hydroxyalkyl, not given here)
T2 chain: {FITC-PEG}-PLHS[pT]

T3: 3m* (not fully specified; reading uncertain)
T3 chain: {FITC-PEG}-PL[His(π-(CH2)8Ph,τ-CH2CH2CH(OH)CH2OH)]S[pT]

B1: Plk3 PBD PBD (protein)
chain: TPPNPARSLFAKVTKSLFGRKKKSKNHAQERDEVSGLVSGLMRTSVGHQDARPEAPAASGPAPVSLVETAPEDSSPRGTLASSGDGFEEGLTVATVVESALCALRNCIAFMPPAEQNPAPLAQPEPLVWVSKWVDYSNKFGFGYQLSSRRVAVLFNDGTHMALSANRKTVHYNPTSTKHFSFSVGAVPRALQPQLGILRYFASYMEQHLMKGGDLPSVEEVEVPAPPLLLQWVKTDQALLMLFSDGTVQVNFYGDHTKLILSGWEPLLVTFVARNRSACTYLASHLRQLGCSPDLRQRLRYALRLLRDRSPA
B2: Plk2 PBD PBD (protein)
chain: HLSSPAKNFFKKAAAALFGGKKDKARYIDTHNRVSKEDEDIYKLRHDLKKTSITQQPSKHRTDEELQPPTTTVARSGTPAVENKQQIGDAIRMIVRGTLGSCSSSSECLEDSTMGSVADTVARVLRGCLENMPEADCIPKEQLSTSFQWVTKWVDYSNKYGFGYQLSDHTVGVLFNNGAHMSLLPDKKTVHYYAELGQCSVFPATDAPEQFISQVTVLKYFSHYMEENLMDGGDLPSVTDIRRPRLYLLQWLKSDKALMMLFNDGTFQVNFYHDHTKIIICSQNEEYLLTYINEDRISTTFRLTTLLMSGCSSELKNRMEYALNMLLQRCN

How the values were obtained:
Experiment in all cases: fluorescence polarization
[1] = target: T1, 2a*
[2] = target: T2, 3c*
[3] = target: T3, 3m*

| Kd [1] | Kd [2] | Kd [3] | Binder |
| --- | --- | --- | --- |
| 306 nM | 240 nM | 62 nM | B1 |
| 400 nM | 43 nM | 24 nM | B2 |
